According to publication doi:10.1101/2024.05.29.596243 (bioRxiv, 2024):

Molecular target: the molecule itself
Test: cryo-electron tomography with subtomogram averaging

B1: H+-ATPase Pma1 (natural protein, UniProt Q6FXU5 1-902, looked up)
chain: MSDVESNNEKPPQDVYEDEEMSEDDDIDALIEELQSHHGMGDDDDSEDEGHHTGSARVVPEEYLQTDPSYGLTSDEVAHRRKKYGLNQMADERESMIVKFVMFFVGPIQFVMEAAAILAAGLSDWVDFGVICGLLMLNACVGFIQEFQAGSIVDELKKTLANVAVVIRDGQLVEVPANEVVPGDILQLEDGTIIPADGRLVTENCFLQVDQSAITGESLAVDKGYGDQTFSSSTVKRGEAFMVVTATGDNTFVGRAAALVNKASGGQGHFTEVLNGIGILLLVLVIVTLLGVWAACFYRTDNIVKILRFTLGITIIGVPVGLPAVVTTTMAVGAAYLAKKQAIVQKLSAIESLAGVEILCSDKTGTLTKNKLSLHEPYTVEGVSADDLMLTACLAASRKKKGLDAIDKAFLKSLINYPKAKDALTKYKVIEFHPFDPVSKKVTAVVESPEGERIVCVKGAPLFVLKTVEEDHPIPEDVHENYENKVAELASRGFRALGVARKRGEGHWEILGVMPCMDPPRDDTAETVNEARRLGLRVKMLTGDAVGIAKETCRQLGLGTNIYNAERLGLGGGGDMPGSELADFVENADGFAEVFPQHKYKVVEILQNRGYLVAMTGDGVNDAPSLKKADTGIAVEGASDAARSAADIVFLAPGLSAIIDALKTSRQIFHRMYSYVVYRIALSLHLELFLGLWIIILNHSLDIELIVFIAIFADVATLAIAYDNAPFSQTPVKWNLPRLWGMSIILGIVLAIGTWICLTTMFLPRGGIIQNFGSIDGVLFLQISLTENWLIFVTRAVGPFWSSIPSWQLAGAVFAVDIIATMFTLFGWFSQNWTDIVTVVKIYIWSIGVFCVLGGFYYIMSESVVFDRLMNGKPLKEEKSTRSVEDFLAAMQRVSTQHEKEN
- stoichiometry N: 6
